Here are results for nine molecules from publication PMC11861898 (Communications Biology, 2025).

In experiment [1] the target is T1, human CIB2 1-187 (calcium- and integrin-binding protein 2), wild type (human, UniProt O75838 1-187).
T1 sequence: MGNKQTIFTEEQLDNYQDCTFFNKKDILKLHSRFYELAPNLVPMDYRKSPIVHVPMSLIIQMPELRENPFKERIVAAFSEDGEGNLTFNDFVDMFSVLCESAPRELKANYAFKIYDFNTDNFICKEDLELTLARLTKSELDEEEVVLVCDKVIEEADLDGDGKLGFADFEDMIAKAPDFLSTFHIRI
The experiment is described as follows: ITC. A general note: ITC needs no label: the signal is the heat of the interaction.

The target in experiment [2] is T2, human CIB2 1-187 Q17A/T20A (human, UniProt O75838 1-187, Q17A | T20A).
T2 sequence: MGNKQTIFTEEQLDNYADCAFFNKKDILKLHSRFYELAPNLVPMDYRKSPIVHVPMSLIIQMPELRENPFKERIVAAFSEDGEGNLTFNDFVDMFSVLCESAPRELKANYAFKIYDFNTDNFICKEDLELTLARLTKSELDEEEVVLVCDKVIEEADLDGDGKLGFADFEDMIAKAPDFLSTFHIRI
The experiment is described as follows: ITC.

Experiment [3] addresses T3, human CIB2 1-187 D127A/D168A (EF-hand double mutant) (human, UniProt O75838 1-187, D127A | D168A).
T3 sequence: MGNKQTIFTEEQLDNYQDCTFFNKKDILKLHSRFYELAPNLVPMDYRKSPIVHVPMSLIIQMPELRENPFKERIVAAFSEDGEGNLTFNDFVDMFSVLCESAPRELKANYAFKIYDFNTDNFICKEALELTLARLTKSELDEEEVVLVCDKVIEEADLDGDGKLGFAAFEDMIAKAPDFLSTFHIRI
In words: ITC.

Experiment [4] addresses T4, human CIB2 E64D (deafness-related variant) (human, UniProt O75838 1-187, E64D).
T4 sequence: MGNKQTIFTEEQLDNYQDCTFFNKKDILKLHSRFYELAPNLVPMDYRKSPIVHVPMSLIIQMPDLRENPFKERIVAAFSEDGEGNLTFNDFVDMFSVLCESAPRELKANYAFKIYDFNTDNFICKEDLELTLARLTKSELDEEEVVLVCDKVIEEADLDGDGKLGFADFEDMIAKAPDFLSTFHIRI
The experiment is described as follows: ITC.

Experiment [5] has as its target T5, human CIB2 R66W (deafness-related variant) (human, UniProt O75838 1-187, R66W).
T5 sequence: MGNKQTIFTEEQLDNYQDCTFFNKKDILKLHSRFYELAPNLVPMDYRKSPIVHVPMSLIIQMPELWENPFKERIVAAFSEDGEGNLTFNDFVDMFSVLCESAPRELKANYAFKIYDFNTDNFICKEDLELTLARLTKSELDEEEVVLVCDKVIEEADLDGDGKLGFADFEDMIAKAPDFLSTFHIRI
In words: ITC.

Experiment [6] deals with T6, human CIB2 Y115C (deafness-related variant) (human, UniProt O75838 1-187, Y115C).
T6 sequence: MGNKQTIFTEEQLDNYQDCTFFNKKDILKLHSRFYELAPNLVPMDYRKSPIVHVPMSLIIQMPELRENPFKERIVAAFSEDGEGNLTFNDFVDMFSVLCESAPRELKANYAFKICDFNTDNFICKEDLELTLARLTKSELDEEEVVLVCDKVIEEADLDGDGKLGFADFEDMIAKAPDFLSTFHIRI
In words: ITC.

Experiment [7] has as its target T7, human CIB2 I123T (deafness-related variant) (human, UniProt O75838 1-187, I123T).
T7 sequence: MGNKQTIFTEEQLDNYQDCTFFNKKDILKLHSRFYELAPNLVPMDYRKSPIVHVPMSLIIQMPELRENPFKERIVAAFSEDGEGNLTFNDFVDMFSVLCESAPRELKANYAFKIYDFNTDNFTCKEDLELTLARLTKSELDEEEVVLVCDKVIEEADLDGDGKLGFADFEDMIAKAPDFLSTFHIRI
In words: ITC.

The target of experiment [8] is T8, human CIB2 R186W (deafness-related variant) (human, UniProt O75838 1-187, R186W).
T8 sequence: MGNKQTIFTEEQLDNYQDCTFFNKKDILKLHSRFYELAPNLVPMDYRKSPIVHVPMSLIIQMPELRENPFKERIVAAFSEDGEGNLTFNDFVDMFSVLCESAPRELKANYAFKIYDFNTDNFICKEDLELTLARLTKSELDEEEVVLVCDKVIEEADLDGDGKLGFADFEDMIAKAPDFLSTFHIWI
In words: ITC.

A further experiment deals with T9, mouse CIB3 (mouse, UniProt A0A5F8MPX9 1-187).
T9 sequence: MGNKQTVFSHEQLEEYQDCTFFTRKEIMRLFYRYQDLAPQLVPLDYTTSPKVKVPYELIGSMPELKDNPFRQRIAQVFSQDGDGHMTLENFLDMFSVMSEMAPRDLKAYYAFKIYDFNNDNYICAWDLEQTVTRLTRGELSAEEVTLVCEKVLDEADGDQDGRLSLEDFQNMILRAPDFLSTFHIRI
The experiment is described as follows: ITC.

Experiment [9] has as its target T1, human CIB2 1-187 (calcium- and …). The experiment is described as follows: SEC-MALS. On the technique in general: Size exclusion chromatography separates by hydrodynamic size, large species first.
A further experiment deals with T10, human CIB2 1-187 E11R (human, UniProt O75838 1-187, E11R).
T10 sequence: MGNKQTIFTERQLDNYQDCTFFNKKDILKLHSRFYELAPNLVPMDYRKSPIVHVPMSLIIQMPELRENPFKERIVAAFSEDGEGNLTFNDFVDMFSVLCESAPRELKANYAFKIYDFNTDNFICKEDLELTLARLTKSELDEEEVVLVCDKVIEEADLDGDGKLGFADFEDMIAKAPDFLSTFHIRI
In words: ITC + SEC.

The next experiment has as its target T11, human CIB2 1-187 F21Q (human, UniProt O75838 1-187, F21Q).
T11 sequence: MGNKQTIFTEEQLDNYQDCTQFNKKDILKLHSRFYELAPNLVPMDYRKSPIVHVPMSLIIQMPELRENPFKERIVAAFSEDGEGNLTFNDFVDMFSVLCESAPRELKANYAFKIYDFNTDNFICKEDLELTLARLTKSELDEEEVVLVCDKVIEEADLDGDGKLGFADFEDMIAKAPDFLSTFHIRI
The experiment is described as follows: ITC + SEC.

Experiment [10] concerns the target T1, human CIB2 1-187 (calcium- and …). In words: ITC + SEC.
Experiment [11] deals with T4, human CIB2 E64D (deafness-related …). In words: pull-down.
Experiment [12] deals with T5, human CIB2 R66W (deafness-related …). In words: pull-down.
Experiment [13] concerns the target T6, human CIB2 Y115C (deafness-related …). The experiment is described as follows: pull-down.
Experiment [14] concerns the target T7, human CIB2 I123T (deafness-related …). The experiment is described as follows: pull-down.
In experiment [15] the target is T8, human CIB2 R186W (deafness-related …). In words: pull-down.
Experiment [16] concerns the target T12, human CIB2 F91S (deafness-related variant) (human, UniProt O75838 1-187, F91S).
T12 sequence: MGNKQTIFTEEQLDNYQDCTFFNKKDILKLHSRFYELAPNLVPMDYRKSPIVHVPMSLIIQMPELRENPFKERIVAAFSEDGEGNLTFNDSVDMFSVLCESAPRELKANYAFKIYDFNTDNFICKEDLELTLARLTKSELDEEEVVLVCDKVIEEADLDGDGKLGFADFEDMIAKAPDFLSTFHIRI
In words: pull-down.

The target of experiment [17] is T12, human CIB2 F91S (deafness-related …). The experiment is described as follows: ITC.

As to ELDEKRQIIATVKCKPWKMEKKIEVLKEAKKFVSENEGALGK (domain or fragment) [human TMC1 fragment 95-136], the dissociation constant (Kd) in experiment [1] was around 4600 nM.

B1: human TMC2 CBD-2 (aa 363-424) (domain or fragment)
chain: NTQGSTGEGESDNFTFSFKMFTSWDYLIGNSETADNKYASITTSFKESIVDEQESNKEENIH
For the molecule B1, the binding result in experiment [1] is on record as “binds”.

B2: human TMC2 CBD-1 (aa 150-200) (domain or fragment)
chain: EEELAQILEQVEEKKKLIATMRSKPWPMAKKLTELREAQEFVEKYEGALGK
As for B2, the Kd in experiment [1] was around 600 nM.

B3: human TMC1 CBD-1 (CIB binding domain-1), residues 86-136 (domain or fragment)
chain: EEELERLKAELDEKRQIIATVKCKPWKMEKKIEVLKEAKKFVSENEGALGK
On to B3, for which the Kd in [1] is around 300 nM. Also, in [2], the “fold decrease in binding affinity against wild-type CIB2” value was above 15 fold. Moreover, the binding result in [3], in [4], in [5], in experiment [6], in experiment [7] and in experiment [8] was “binds” throughout. Moreover, the binding result in the experiment with mouse CIB3, with human CIB2 1-187 E11R and with human CIB2 1-187 F21Q was “binds” throughout. In addition, in experiment [9], the “stoichiometry N” value worked out at 1.

B4: human TMC1 CBD-1 (86-136) K107A (domain or fragment)
chain: EEELERLKAELDEKRQIIATVACKPWKMEKKIEVLKEAKKFVSENEGALGK
As for B4, in [10], the binding result is listed as “binds”.

B5: GST-tagged human TMC1 CBD-1 (86-136) (domain or fragment)
chain: EEELERLKAELDEKRQIIATVKCKPWKMEKKIEVLKEAKKFVSENEGALGK
For B5, the binding result in experiment [11], in experiment [12], in experiment [13], in experiment [14] and in [15] was “binds” throughout.

B6: human TMC1 CBD-1 (86-136) K121E (domain or fragment)
chain: EEELERLKAELDEKRQIIATVKCKPWKMEKKIEVLEEAKKFVSENEGALGK
As to B6, in experiment [10], the binding result was “binds”.

B7: GST-tagged human TMC1 CBD-2 (298-359) (domain or fragment)
chain: KNIGDDGGGDDNTFNFSWKVFTSWDYLIGNPETADNKFNSITMNFKEAITEEKAAQVEENVH
Regarding B7, the binding result in experiment [12], in experiment [16] and in [15] was “binds” each time.

B8: human TMC1 CBD-2, amino acids 298-359 (first cytoplasmic loop between TM domains 2 and 3) (domain or fragment)
chain: KNIGDDGGGDDNTFNFSWKVFTSWDYLIGNPETADNKFNSITMNFKEAITEEKAAQVEENVH
Turning to B8, the binding result in [5], in [17] and in [8] was “binds” each time.

As usually defined, the Kd is the concentration at which binding is half-saturated. The term stoichiometry N denotes the number of molecules, sites or subunits per partner or assembly.
